Laboratory results taken from PMC5535893.

Experiments:
[1] = biological target: mouse CD3εγ-chains (mouse (endogenous in C57BL/6 spleen T cells)) (UniProt P22646)
[2] = biological target: mouse CD3εγ-chains (mouse (endogenous in C57BL/6 spleen T cells)) (UniProt P22646); test: flow cytometry on cells; fixed CD8+ T cells (1 x 10^6/mL) incubated with or without ArtinM (25 µg/mL) for 40 min at 4 °C, then with 145-2C11-PE or 17A2-FITC (10 µg/mL) for 40 min at 4 °C; percentage of cells labelled with anti-CD3 antibody

Chain of UniProt P22646 (P22646 22-189, chain 1 of 2): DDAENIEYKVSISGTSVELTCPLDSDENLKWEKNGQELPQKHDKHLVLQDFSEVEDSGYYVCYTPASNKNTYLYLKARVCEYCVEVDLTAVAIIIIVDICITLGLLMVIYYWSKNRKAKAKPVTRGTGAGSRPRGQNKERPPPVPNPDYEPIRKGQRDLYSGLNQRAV
Chain of UniProt P22646 (P11942 23-182, chain 2 of 2, further chain): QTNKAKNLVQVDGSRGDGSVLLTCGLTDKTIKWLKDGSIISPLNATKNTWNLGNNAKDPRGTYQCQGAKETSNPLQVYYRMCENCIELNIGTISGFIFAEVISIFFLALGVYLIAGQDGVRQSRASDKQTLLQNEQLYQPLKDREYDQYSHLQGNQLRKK

ArtinM, D-mannose-binding lectin from Artocarpus heterophyllus (natural protein)
inhibition of the ArtinM-induced (1.25 µg/mL, 48 h) IL-2 release by CD8+ T cells after treatment with the anti-CD3εγ-chains antibody 17A2 (8 µg/mL), against an IgG isotype control; ELISA [1]: 70%
fold decrease in the frequency of CD8+ T cells labelled by the anti-CD3εγ antibody 17A2 after pre-incubation with ArtinM [2]: 3.5 fold
